Results published in the supplement of paper PMC11780869.

Test system: Bacillus subtilis
Experiment: cleaved RNA product abundance (RNA/gDNA barcode ratio) relative to median wild-type variant (ratio to wild type); higher = more accumulation of the downstream cleavage product
Method: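 MPRA in B. subtilis. Mutagenized RNase Y cleavage-site regions (9% mutation rate) were inserted into a barcoded reporter mRNA (truncated aprE or tetM). Cells were grown in LB at 37°C to OD600 0.3. The cleaved RNA isoform was gel-purified and its barcodes counted; the RNA:gDNA barcode ratio was normalised to the median wild-type variant, and the median over barcodes is reported per variant. The printed sequence is the variable window only; the reporter flanks are not printed.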

[1] = experiment (reporter, strain, medium): exp 2b: truncated aprE reporter, strain BJT200, cleavage site: cggR-gapA (positions -7 to +36 mutated)
[2] = experiment (reporter, strain, medium): exp 8a: truncated aprE reporter, strain BJT201 with 2% xylose (RNase J1 expressed), cleavage site: glnRA (positions -5 to +31 mutated)
[3] = experiment (reporter, strain, medium): exp 4a: truncated aprE reporter, strain BJT201 with 2% xylose (RNase J1 expressed), cleavage site: cggR-gapA (positions -7 to +36 mutated)

Row | Sequence | cleaved RNA product abundance [2] | cleaved RNA product abundance [3] | further results
1 | ACAGACGAAGGAGCCGCAATGAAGTTATTAAGTGATGAATAATCCCTCAATATAAATATCTCTCACTTATTTAAA | – | – | cleaved RNA product abundance [1]: 0.0987
2 | CGACATGTCCCGCTTCTTTCATTAATCAGTTTGCAACTGTTTTGCTATATACATTTACCTTTTAAGAGGAGGAAT | 0.686 | – | –
3 | ACAGACGAAGGAGCCGCAAAGAAGTTAGTAAGGGATTAATAATCCCTCAATATAAATATCTCTCACTTATTTAAA | – | 0.406 | –
4 | ACAGACGAAGGAGCCGCAAAGGAGTTATTAAGGGATGAATAATCCCCCAATATAAATATCTCTCACTTATTTAAA | – | 0.247 | –
5 | ACAGACGAAGGAGCCGCAAAGAAGAAATTAAGGGATGAATAATTCCTCAATATAAATATCTCTCACTTATTTAAA | – | 0.129 | –
6 | ACAGACGAAGGAGCCGCAAAGAAGTAATTAAGGGATAAATAATCCCTCAATATAAATATCTCTCACTTATTTAAA | – | 0.219 | cleaved RNA product abundance [1]: 0.256
7 | CGACATGTCCCGCTTCTTTCATTAATCAGTTAGCAACTGTTTTCCTATATACATTTACCTTTTAAGAGGAGGAAT | 0.433 | – | –
8 | CGACATGTCCCGCTTCTTTCATTAATCCGTTAGCAACTGTTTTGCTATATACATTTTTCTTTTAAGAGGAGGAAT | 0.479 | – | –
9 | ACAGACGAAGGAGCCGCAAAGAAGTTATTACGGGATGAATAAGCCCTCAATATAAATATCTCTCACTTATTTAAA | – | – | cleaved RNA product abundance [1]: 0.189
10 | CGACATGTCCCGCTTCTTTCATTAATCTGTTAGCAACTGTTTTGCTATATAAATTTACCTTTTAAGAGGAGGAAT | 0.994 | – | –
11 | CGACATGTCCCGCTTCTTTCATTAATCCGTTAGCAACTGTTTTACTATATACATCTACCTTTTAAGAGGAGGAAT | 0.506 | – | –
12 | CGACATGTCCCGCTTCTTTCATTAATCCGTTAGCACCTCTTTTGCTATATACATTTACCTTTTAAGAGGAGGAAT | 0.235 | – | –
13 | CGACATGTCCCGCTTCTTTCATTAATCCGATAGCAACTGTTTAGCTATATACATTTACCTTTTAAGAGGAGGAAT | 0.822 | – | –
14 | ACAGACGAAGGAGCCGCAAAGAAGTTATTAAGTGATGAATAATCCCTCAATCTAAATATCTCTCACTTATTTAAA | – | 0.0609 | –
15 | CGACATGTCCCGCTTCTTTCATTACTCCGTTAGCAACTGTTTTGCTATAGACATTTACCTTTTAAGAGGAGGAAT | 0.738 | – | –
16 | CGACATGTCCCGCTTCTTTCATTAATCCGTTAGTAACTGTTTTGATATATACATTTACCTTTTAAGAGGAGGAAT | 0.66 | – | –
17 | ACAGACGAAGGAGCCGCAAAGAAGTTATTAAGGGATGAATAATCCCTCAATATAAACCTCTCTCACTTATTTAAA | – | 0.171 | –
18 | CGACATGTCCCGCTTCTTTCATTAATCCGTTTGCAACTGTTATGCTATATACATTTACCTTTTAAGAGGAGGAAT | 0.428 | – | –
19 | ACAGACGAAGGAGCCGCAAAGAAGTTATTAAGGGATGAATAATCCGTAAATATAAATATCTCTCACTTATTTAAA | – | 0.28 | –
20 | ACAGACGAAGGAGCCGCAAAGACGTTATTAAGGGATGACTAATCCCTCAATATAAATATCTCTCACTTATTTAAA | – | – | cleaved RNA product abundance [1]: 0.561

Row | Sequence | cleaved RNA product abundance [2] | cleaved RNA product abundance [3] | further results
21 | CGACATGTCCCGCTTCTTTCATTAATCCGTTAGCATCTGATTTGCTATATACATTTACCTTTTAAGAGGAGGAAT | 1.34 | – | –
22 | ACAGACGAAGGAGCCGCAAAGAAGTTATTAAGGGATAAATAATCCCTCACTATAAATATCTCTCACTTATTTAAA | – | 0.193 | cleaved RNA product abundance [1]: 0.247
23 | CGACATGTCCCGCTTCTTTCATTAATCCGTTAGCAAATTTTTTGCTATATACATTTACCTTTTAAGAGGAGGAAT | 1.19 | – | –
24 | CGACATGTCCCGCTTCTTTCATTAATCCGTTAGCAACTGTGTTACTATATACATTTACCTTTTAAGAGGAGGAAT | 0.274 | – | –
25 | ACAGACGAAGGAGCCGCACAGAAGTAATTAAGGGATGAATAATCCCTCAATATAAATATCTCTCACTTATTTAAA | – | 0.391 | –
26 | ACAGACGAAGGAGCCGCAAAGAAGTGATTAAGGGATGAATAATCTCTCAATATAAATATCTCTCACTTATTTAAA | – | 0.306 | –
27 | ACAGACGAAGGAGCCGCAAAGAAGTTATTAAGGGATGAATCATCCATCAATATAAATATCTCTCACTTATTTAAA | – | 0.219 | –
28 | CGACATGTCCCGCTTCTTTCATTAATCCGTTAGCAACTGTTTTGCTATGTACATTTACCTTTTAAGAGGAGGAAT | 0.215 | – | –
29 | CGACATGTCCCGCTTCTTTCATTAATCCGTTATCAACTGGTTTGCTATATACATTTACCTTTTAAGAGGAGGAAT | 0.204 | – | –
30 | ACAGACGAAGGAGCCGCAAAGAACTTATTAAGGGATTAATAATCCCTCAATATAAATATCTCTCACTTATTTAAA | – | 0.621 | –
31 | ACAGACGAAGGAGCCGCAAAGAAGCTATTAAGGGATGTATAATCCCTCAATATAAATATCTCTCACTTATTTAAA | – | 0.576 | –
32 | CGACATGTCCCGCTTCTTTCATTATTCCGTTAGCAACTGTTATGCTATATACATTTACCTTTTAAGAGGAGGAAT | 0.76 | – | –
33 | ACAGACGAAGGAGCCGCAAAGAACTGATTAAGGGATGAATAATCCCTCAATATAAATATCTCTCACTTATTTAAA | – | 0.238 | –
34 | ACAGACGAAGGAGCCGCAAATGAGTTATTAAGGGATGAATAATCCCTCAATATAAATATCTCTCACTTATTTAAA | – | 1.15 | –
35 | CGACATGTCCCGCTTCTTTCATTATTCCGTTAGCAACTGTTTTGGTATATACATTTACCTTTTAAGAGGAGGAAT | 0.304 | – | –
36 | ACAGACGAAGGAGCCGCAAAGAAGTTATTAAGGGATGAATAATCCCTAAATATAGATATCTCTCACTTATTTAAA | – | 0.551 | cleaved RNA product abundance [1]: 0.495
37 | ACAGACGAAGGAGCCGCAAACAAGTTATTAAGGGATGAATAATCACTCAATATAAATATCTCTCACTTATTTAAA | – | 0.127 | –
38 | CGACATGTCCCGCTTCTTTCATTAATCCGTTAGCCACTGTATTGCTATATACATTTACCTTTTAAGAGGAGGAAT | 0.376 | – | –
39 | ACAGACGAAGGAGCCGCAAAGAAGTTATTAAGGAATGAATAATGCCTCAATATAAATATCTCTCACTTATTTAAA | – | 0.0706 | –
40 | CGACATGTCCCGCTTCTTTCATTAATCCGTTACCAACTATTTTGCTATATACATTTACCTTTTAAGAGGAGGAAT | 0.178 | – | –

Row | Sequence | cleaved RNA product abundance [2] | cleaved RNA product abundance [3] | further results
41 | ACAGACGAAGGAGCCGCAAAGAAGTTATAAAGAGATGAATAATCCCTCAATATAAATATCTCTCACTTATTTAAA | – | 0.137 | cleaved RNA product abundance [1]: 0.11
42 | ACAGACGAAGGAGCCGCAAATAAGTTATTAATGGATGAATAATCCCTCATTATAAATATCTCTCACTTATTTAAA | – | 0.135 | –
43 | ACAGACGAAGGAGCCGCAAAGAAGTTATTAAGGGATGAATAATCCCTGAATATAAATATCTCTCACTTATTTAAA | – | 0.684 | cleaved RNA product abundance [1]: 0.566; cleaved RNA product abundance (experiment (reporter, strain, medium): exp 6: tetM reporter, strain 168, cleavage site: cggR-gapA (positions -7 to +36 mutated)): 0.675
44 | CGACATGTCCCGCTTCTTTCATTATTCTGTTAGCAACTGTTTTGCTATATACAGTTACCTTTTAAGAGGAGGAAT | 0.717 | – | –
45 | ACAGACGAAGGAGCCGCAAAGTAGTTATTAAGGCATGAATAATCCCTCAATATAAATATCTCTCACTTATTTAAA | – | 0.124 | cleaved RNA product abundance [1]: 0.101
46 | ACAGACGAAGGAGCCGCTACGAAGTTATTAAGGGATGAATAATCTCTCAATATAAATATCTCTCACTTATTTAAA | – | 0.816 | –
47 | ACAGACGAAGGAGCCGCAAAGAAGTTATTAAGGGATAAATAATCCCTCATTATAAATATCTCTCACTTATTTAAA | – | 0.267 | –
48 | CGACATGTCCCGCTTCTTTCATTAATCCGTTAGCAACTGTTCTGCTATATATATTTACCTTTTAAGAGGAGGAAT | 0.554 | – | –
49 | ACAGACGAAGGAGCCGCAAACAAGTAATTAAGGGATGAATAATCCCTCAATATAAATATCTCTCACTTATTTAAA | – | 0.214 | cleaved RNA product abundance [1]: 0.177
50 | ACAGACGAAGGAGCCGCAAAGAGGTTATTTAGGGATGAATAATCCCTCAATATAAATATCTCTCACTTATTTAAA | – | 0.527 | –
51 | ACAGACGAAGGAGCCGCAAAGAAGTTATTAAGGGATGAATAATCCATCAATATATATATCTCTCACTTATTTAAA | – | 0.191 | cleaved RNA product abundance [1]: 0.19
52 | ACAGACGAAGGAGCCGCAAAGAAGTTATTAAGGGATAAATAACCCCTCAATATAAATATCTCTCACTTATTTAAA | – | 0.499 | cleaved RNA product abundance [1]: 0.423
53 | CGACATGTCCCGCTTCTTTCATTAATCTGTTAGCTACTGTTTTGCTATATACATTTACCTTTTAAGAGGAGGAAT | 0.743 | – | –
54 | ACAGACGAAGGAGCCGCAAAGAAGTTATTAAGGGTTGAATAATCTCTCAATATAAATATCTCTCACTTATTTAAA | – | 0.244 | –
55 | ACAGACGAAGGAGCCGCAAAGAAGTTATTCAGGCATGAATAATCCCTCAATATAAATATCTCTCACTTATTTAAA | – | – | cleaved RNA product abundance [1]: 0.0983
56 | ACAGACGAAGGAGCCGCAAAGACGTTATTAAGAGATGAATAATCCCTCAATATAAATATCTCTCACTTATTTAAA | – | 0.116 | cleaved RNA product abundance [1]: 0.101
57 | CGACATGTCCCGCTTCTTTCATTAATCCGTTACCAACTGTTTTGCTATATAAATTTACCTTTTAAGAGGAGGAAT | 0.163 | – | –
58 | CGACATGTCCCGCTTCTTTCATTAATCCGTTAGCAACTGTTTTGCTATATACATGTACCTTTTAAGAGGAGGAAT | 0.738 | – | –
59 | ACAGACGAAGGAGCCGCAAAGAAGTTATTAAGGTATGAATAATCCCTCAATATAAATCTCTCTCACTTATTTAAA | – | – | cleaved RNA product abundance [1]: 0.0874
60 | ACAGACGAAGGAGCCGCAAAGAAGGTATTAAGGGATGAATAATCCCACAATATAAATATCTCTCACTTATTTAAA | – | – | cleaved RNA product abundance [1]: 0.314
